Assay in all cases: cleavage_in_vitro
In data set [1] the test system is T1, OMNI-95 (metagenomic, unknown).
T1 sequence: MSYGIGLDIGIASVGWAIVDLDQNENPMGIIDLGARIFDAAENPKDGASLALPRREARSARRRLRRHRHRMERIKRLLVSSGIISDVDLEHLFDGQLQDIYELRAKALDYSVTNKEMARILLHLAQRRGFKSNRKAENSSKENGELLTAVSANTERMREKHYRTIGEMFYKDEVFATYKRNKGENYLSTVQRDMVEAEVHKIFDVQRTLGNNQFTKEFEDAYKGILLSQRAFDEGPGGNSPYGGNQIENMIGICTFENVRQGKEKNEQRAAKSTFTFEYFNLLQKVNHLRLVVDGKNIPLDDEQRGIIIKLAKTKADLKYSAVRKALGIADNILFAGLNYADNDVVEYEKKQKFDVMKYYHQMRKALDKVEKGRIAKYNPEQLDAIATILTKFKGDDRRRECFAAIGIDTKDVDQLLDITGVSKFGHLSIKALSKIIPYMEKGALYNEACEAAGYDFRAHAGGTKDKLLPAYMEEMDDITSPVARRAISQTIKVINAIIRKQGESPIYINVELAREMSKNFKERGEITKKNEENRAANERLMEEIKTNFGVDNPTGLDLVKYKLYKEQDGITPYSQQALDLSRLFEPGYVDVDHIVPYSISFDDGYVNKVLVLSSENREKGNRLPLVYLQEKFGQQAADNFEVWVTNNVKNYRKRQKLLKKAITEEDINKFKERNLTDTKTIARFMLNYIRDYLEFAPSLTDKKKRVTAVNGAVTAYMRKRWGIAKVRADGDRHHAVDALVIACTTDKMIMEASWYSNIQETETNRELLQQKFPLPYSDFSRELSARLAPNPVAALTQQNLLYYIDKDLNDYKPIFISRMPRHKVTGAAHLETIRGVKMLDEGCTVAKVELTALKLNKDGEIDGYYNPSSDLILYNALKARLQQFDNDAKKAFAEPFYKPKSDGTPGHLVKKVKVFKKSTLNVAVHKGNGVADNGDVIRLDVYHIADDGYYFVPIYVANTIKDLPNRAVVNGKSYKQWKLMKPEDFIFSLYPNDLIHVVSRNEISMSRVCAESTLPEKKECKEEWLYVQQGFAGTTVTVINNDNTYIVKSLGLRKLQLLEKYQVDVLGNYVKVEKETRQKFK
As to conditions: TXTL; PAM NNGYAANN

Data set [2] deals with T2, OMNI-94 (metagenomic, unknown).
T2 sequence: T1 sequence
The conditions noted are these: TXTL; PAM NNRRAYGN

Data set [3] deals with T3, OMNI-138 (metagenomic, unknown).
T3 sequence: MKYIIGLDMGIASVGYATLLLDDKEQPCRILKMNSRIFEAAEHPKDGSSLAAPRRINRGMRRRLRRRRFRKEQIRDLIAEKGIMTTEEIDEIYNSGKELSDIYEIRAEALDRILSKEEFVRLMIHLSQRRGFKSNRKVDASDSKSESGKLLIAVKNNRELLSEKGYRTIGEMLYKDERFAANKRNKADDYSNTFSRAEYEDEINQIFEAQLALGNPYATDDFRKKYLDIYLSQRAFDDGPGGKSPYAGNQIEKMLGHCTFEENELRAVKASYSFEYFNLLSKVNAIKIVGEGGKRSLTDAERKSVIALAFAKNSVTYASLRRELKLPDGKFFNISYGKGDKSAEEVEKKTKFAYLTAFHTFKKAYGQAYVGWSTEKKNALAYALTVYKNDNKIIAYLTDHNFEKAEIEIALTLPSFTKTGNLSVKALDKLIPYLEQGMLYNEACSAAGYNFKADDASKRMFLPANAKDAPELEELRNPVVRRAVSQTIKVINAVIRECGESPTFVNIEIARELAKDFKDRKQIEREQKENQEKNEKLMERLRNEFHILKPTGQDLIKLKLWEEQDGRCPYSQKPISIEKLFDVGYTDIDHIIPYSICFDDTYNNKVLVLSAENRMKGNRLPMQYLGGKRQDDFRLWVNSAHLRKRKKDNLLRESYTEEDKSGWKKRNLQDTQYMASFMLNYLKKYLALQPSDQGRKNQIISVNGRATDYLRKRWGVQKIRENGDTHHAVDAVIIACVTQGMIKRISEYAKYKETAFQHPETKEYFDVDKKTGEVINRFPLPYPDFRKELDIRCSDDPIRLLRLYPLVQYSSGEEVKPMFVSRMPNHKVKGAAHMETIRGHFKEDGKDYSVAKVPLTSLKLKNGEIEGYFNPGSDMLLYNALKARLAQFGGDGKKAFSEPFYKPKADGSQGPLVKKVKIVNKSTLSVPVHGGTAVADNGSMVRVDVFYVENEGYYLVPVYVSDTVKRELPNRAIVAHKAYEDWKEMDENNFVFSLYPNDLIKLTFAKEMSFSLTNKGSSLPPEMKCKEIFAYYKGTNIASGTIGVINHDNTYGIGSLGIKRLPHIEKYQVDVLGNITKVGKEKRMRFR
As to conditions: TXTL; PAM NNNNGTKA

For the sequence “GGAAGAGCAGAGCCUUGGUCUCAUUUUAGUACCUGGAGAAAGAAAUUUCUUCAGACCUACUAAAACAAGGCUUUAUGCCGAAAGUUUUUUUGAUUUGAAUUGAAUGAGUUGAAAGAGGAUGCCGACGGGUGUCCUCUUUUUUU / GGAAGAGCAGAGCCTTGGTCTCNNNNNNNN / NNNNNNNNGAGACCAAGGCTCTGCTCTTCC [T2 sgRNA 6 V1 ; T2 protospacer + 8N PAM library (pbPOS T2)]”, the activity (1-depletion score) in data set [1] turned out to be 0.77.

On to “GGAAGAGCAGAGCCUUGGUCUCGUUGUAGCUCCCUGUUAAUGAAAACUAACAGGUUACUACAAUAAGGUCUUAGGACCGCAAAGCUCUAUCGCCCUACAUCCGUAGGGCGAUAUCUUUUUAUACAUUUUUU / GGAAGAGCAGAGCCTTGGTCTCNNNNNNNN / NNNNNNNNGAGACCAAGGCTCTGCTCTTCC [T2 sgRNA 5 V1 ; T2 protospacer + 8N PAM library (pbPOS T2)]”, for which the activity (1-depletion score) in data set [2] came out at 0.69.

For “GGAAGAGCAGAGCCUUGGUCUCGUUGUAGUUCCCUAAUUAUGAAAACAAUUAGGUUACUAUGAUAAGGUAGUAUACCGCAAAGCUCUAACGCCUCAUCUUAAUGAUGGGGCGUUAUCUUUUUU / GGAAGAGCAGAGCCTTGGTCTCNNNNNNNN / NNNNNNNNGAGACCAAGGCTCTGCTCTTCC [T2 sgRNA 38 V1 ; T2 protospacer + 8N PAM library (pbPOS T2)]”, the activity (1-depletion score) in data set [3] was determined as 0.97.

Values taken from patent US20240425885.
